The values below come from US20220177587A1, “METHODS AND USES OF VARIANT CD80 FUSION PROTEINS AND RELATED CONSTRUCTS” (Alpine Immune Sciences, Inc., priority 2018, published 2022).

Assay [1] addresses CD28 (human) (UniProt P10747). The experiment in a line: flow cytometry, Expi293F cells transfected with CD28.
The target in assay [2] is human PD-L1 (human) (UniProt Q9NZQ7). The experiment in a line: flow cytometry, Expi293F cells transfected with PD-L1. A general note: In flow cytometry, cells or beads pass a laser one at a time.
Assay [3] has as its target human CTLA-4 (human) (UniProt P16410). The experiment in a line: flow cytometry, Expi293F cells transfected with CTLA-4.

Chain of human PD-L1 (human) (Q9NZQ7 19-290): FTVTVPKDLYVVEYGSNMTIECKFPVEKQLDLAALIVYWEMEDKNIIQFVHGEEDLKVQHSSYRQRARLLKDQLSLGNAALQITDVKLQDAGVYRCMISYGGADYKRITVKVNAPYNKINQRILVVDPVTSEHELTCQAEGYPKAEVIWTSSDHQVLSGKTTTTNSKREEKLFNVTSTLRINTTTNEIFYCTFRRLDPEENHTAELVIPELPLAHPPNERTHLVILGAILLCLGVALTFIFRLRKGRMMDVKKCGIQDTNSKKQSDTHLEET
Chain of human CTLA-4 (human) (P16410 36-223): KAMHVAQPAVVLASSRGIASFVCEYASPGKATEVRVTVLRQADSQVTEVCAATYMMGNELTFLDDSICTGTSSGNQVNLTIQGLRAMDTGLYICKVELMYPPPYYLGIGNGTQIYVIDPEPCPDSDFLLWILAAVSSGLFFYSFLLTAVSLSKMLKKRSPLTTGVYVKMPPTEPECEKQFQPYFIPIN

B1: CD80 S44P/L70Q/A91G/T130A ECD-Fc (Fc fusion)
chain: VIHVTKEVKEVATLSCGHNVSVEELAQTRIYWQKEKKMVLTMMPGDMNIWPEYKNRTIFDITNNLSIVIQALRPSDEGTYECVVLKYEKDGFKREHLAEVTLSVKADFPTPSISDFEIPTSNIRRIICSASGGFPEPHLSWLENGEELNAINTTVSQDPETELYAVSSKLDFNMTTNHSFMCLIKYGHLRVNQTFNWNTTKQEHFPDN
Consider B1, for which the MFI in assay [1] turned out to be 88 MFI; in assay [2] it was 5 MFI; in assay [3], 134 MFI. Also, the parental ratio is 0.92 in assay [1], 0.07 in assay [2] and 0.64 in assay [3].

B2: CD80 A91G/F92L/F108L/I118V/T120S ECD-Fc (Fc fusion)
chain: VIHVTKEVKEVATLSCGHNVSVEELAQTRIYWQKEKKMVLTMMSGDMNIWPEYKNRTIFDITNNLSIVILALRPSDEGTYECVVLKYEKDGLKREHLAEVTLSVKADLPTPSISDFEVPSSNIRRIICSTSGGFPEPHLSWLENGEELNAINTTVSQDPETELYAVSSKLDFNMTTNHSFMCLIKYGHLRVNQTFNWNTTKQEHFPDN
As for B2, the MFI in assay [1] came out at 50 MFI; in assay [2], 16 MFI; in assay [3], 128 MFI. The parental ratio in assay [1] turned out to be 0.53; in assay [2] it was 0.11; in assay [3], 0.61.

B3: CD80 V22A/L70Q/S121P ECD-Fc (Fc fusion)
chain: VIHVTKEVKEVATLSCGHNVSAEELAQTRIYWQKEKKMVLTMMSGDMNIWPEYKNRTIFDITNNLSIVIQALRPSDEGTYECVVLKYEKDAFKREHLAEVTLSVKADFPTPSISDFEIPTPNIRRIICSTSGGFPEPHLSWLENGEELNAINTTVSQDPETELYAVSSKLDFNMTTNHSFMCLIKYGHLRVNQTFNWNTTKQEHFPDN
As for B3, the MFI in assay [1] worked out at 5 MFI; in assay [2] it was 5 MFI; in assay [3] it was 7 MFI. For the same molecule, the figures for the parental ratio in assay [1], in assay [2] and in assay [3] were 0.06, 0.07 and 0.04, respectively.

B4: CD80 K37E/F59S/L70Q/A91G/T120S/T130A ECD-Fc (SEQ ID NO 1397) (Fc fusion)
chain: VIHVTKEVKEVATLSCGHNVSVEELAQTRIYWQKEKEMVLTMMSGDMNIWPEYKNRTISDITNNLSIVIQALRPSDEGTYECVVLKYEKDGFKREHLAEVTLSVKADFPTPSISDFEVPSSNIRRIICSASGGFPEPHLSWLENGEELNAINTTVSQDPETELYAVSSKLDFNMTTNHSFMCLIEYGHLRVNQTFNWNTTKQEHFPDN
On to B4, for which the MFI in assay [1] was 20 MFI; in assay [2], 6 MFI; in assay [3], 74 MFI. For the same molecule, the figures for the parental ratio in assay [1], in assay [2] and in assay [3] were 0.21, 0.08 and 0.36, respectively.

B5: CD80 I67T/L70Q/A91G/I118V/T120S ECD-Fc (Fc fusion)
chain: VIHVTKEVKEVATLSCGHNVSVEELAQTRIYWQKEKKMVLTMMSGDMNIWPEYKNRTIFDITNNLSTVIQALRPSDEGTYECVVLKYEKDGFKREHLAEVTLSVKADFPTPSISDFEVPSSNIRRIICSTSGGFPEPHLSWLENGEELNAINTTVSQDPETELYAVSSKLDFNMTTNHSFMCLIKYGHLRVNQTFHWNTTKQEHFPDN
For the molecule B5, the MFI in assay [1] worked out at 98 MFI; in assay [2], 5 MFI; in assay [3], 160 MFI. Moreover, the values for the parental ratio in assay [1], in assay [2] and in assay [3] were 1.03, 0.08 and 0.77, respectively.

B6: CD80 A91G/L102S ECD-Fc (Fc fusion)
chain: VIHVTKEVKEVATLSCGHNVSVEELAQTRIYWQKEKKMVLTMMSGDMNIWPEYKNRTIFDITNNLSIVILALRPSDEGTYECVVLKYEKDGFKREHLAEVTSSVKADFPTPSISDFEIPTSNIRRIICSTSGGFPEPHLSWLENGEELNAINTTVSQDPETELYAVSSKLDFNMTTNHSFMCLIKYGHLRVNQTFNWNTTKQEHFPDN
Take B6: the MFI in assay [1] was found to be 6 MFI; in assay [2], 5 MFI; in assay [3] it was 6 MFI. Further, the parental ratio worked out at 0.06 in assay [1], 0.08 in assay [2] and 0.03 in assay [3].

B7: CD80 I67F/L70R/E88G/A91G/I118V/T120S/T130A ECD-Fc (Fc fusion)
chain: VIHVTKEVKEVATLSCGHNVSVEELAQTRIYWQKEKKMVLTMMSGDMNIWPEYKNRTIFDITNNLSFVIRALRPSDEGTYECVVLKYGKDGFKREHLAEVTLSVKADFPTPSISDFEVPSSNIRRIICSASGGFPEPHLSWLENGEELNAINTTVSQDPETELYAVSSKLDFNMTTNHSFMCLIKYGHLRVNQTFNWNTTKQEHFPDN
With B7, the figures for the MFI in assay [1], in assay [2] and in assay [3] were 5 MFI, 6 MFI and 6 MFI, respectively. Besides, the parental ratio in assay [1] is 0.05; in assay [2], 0.08; in assay [3] it was 0.03.

B8: CD80 L70Q/A91G/T110A/I118V/T120S/T130A ECD-Fc (Fc fusion)
chain: VIHVTKEVKEVATLSCGHNVSVEELAQTRIYWQKEKKMVLTMMSGDMNIWPEYKNRTIFDITNNLSIVIQALRPSDEGTYECVVLKYEKDGFKREHLAEVTLSVKADFPAPSISDFEVPSSNIRRIICSASGGFPEPHLSWLENGEELNAINTTVSQDPETELYAVSSKLDFNMTTNHSFMCLIKYGHLRVNQTFNWNTTKQEHFPDN
With B8, the MFI in assay [1] worked out at 8 MFI; in assay [2], 5 MFI; in assay [3] it was 14 MFI. Besides, the parental ratio worked out at 0.09 in assay [1], 0.07 in assay [2] and 0.07 in assay [3].

B9: CD80 E24G/R29D/Y31L/Q33H/K36G/M38I/T41A/M43R/M47T/F59L/E81V/L85R/K89N/A91T/F92P/K93V/R94L/H96R/N149S/C182S ECD-Fc (Fc fusion)
chain: VIHVTKEVKEVATLSCGHNVSVEGLAQTDILWHKEGKIVLAMRSGDTNIWPEYKNRTILDITNNLSIVILALRPSDEGTYVCVVRKYENDTPVLERLAEVTLSVKADFPTPSISDFEIPTSNIRRIICSTSGGFPEPHLSWLENGEELSAINTTVSQDPETELYAVSSKLDFNMTTNHSFMSLIKYGHLRVNQTFNWNTTKQEHFPDN
As to B9, the MFI in assay [1] was 1070 MFI; in assay [2], 1120 MFI; in assay [3], 1020 MFI. The parental ratio in assay [1] was 0.08; in assay [2] it was 0.06; in assay [3] it was 0.02.

B10: CD80 R29V/M43Q/E81R/L85I/K89R/D90L/A91E/F92N/K93Q/R94G ECD-Fc (Fc fusion)
chain: VIHVTKEVKEVATLSCGHNVSVEELAQTVIYWQKEKKMVLTMQSGDMNIWPEYKNRTIFDITNNLSIVILALRPSDEGTYRCVVIKYERLENQGEHLAEVTLSVKADFPTPSISDFEIPTSNIRRIICSTSGGFPEPHLSWLENGEELNAINTTVSQDPETELYAVSSKLDFNMTTNHSFMCLIKYGHLRVNQTFNWNTTKQEHFPDN
With B10, the results for the MFI in assay [1], in assay [2] and in assay [3] were 1030 MFI, 1580 MFI and 996 MFI, respectively. In addition, the parental ratio in assay [1] is 0.08; in assay [2], 0.09; in assay [3] it was 0.02.

B11: CD80 A12V/S15F/Y31H/M38L/T41G/M43L/D90N/T130A/P137L/N149D/N152T ECD-Fc (Fc fusion)
chain: VIHVTKEVKEVVTLFCGHNVSVEELAQTRIHWQKEKKLVLGMLSGDMNIWPEYKNRTIFDITNNLSIVILALRPSDEGTYECVVLKYEKNAFKREHLAEVTLSVKADFPTPSISDFEIPTSNIRRIICSASGGFPELHLSWLENGEELDAITTTVSQDPETELYAVSSKLDFNMTTNHSFMCLIKYGHLRVNQTFNWNTTKQEHFPDN
Turning to B11, the MFI in assay [1] was 6 MFI; in assay [2] it was 5 MFI; in assay [3], 6 MFI. Also, the parental ratio in assay [1] was determined as 0.06; in assay [2], 0.08; in assay [3] it was 0.03.
